Reference: patent US20180339041A1 (Kyowa Kirin, published 2018)

T1: human Mer forcedly expressed on HEK293F reporter cells (human, UniProt Q12866 21-999)
T1 sequence (looked up): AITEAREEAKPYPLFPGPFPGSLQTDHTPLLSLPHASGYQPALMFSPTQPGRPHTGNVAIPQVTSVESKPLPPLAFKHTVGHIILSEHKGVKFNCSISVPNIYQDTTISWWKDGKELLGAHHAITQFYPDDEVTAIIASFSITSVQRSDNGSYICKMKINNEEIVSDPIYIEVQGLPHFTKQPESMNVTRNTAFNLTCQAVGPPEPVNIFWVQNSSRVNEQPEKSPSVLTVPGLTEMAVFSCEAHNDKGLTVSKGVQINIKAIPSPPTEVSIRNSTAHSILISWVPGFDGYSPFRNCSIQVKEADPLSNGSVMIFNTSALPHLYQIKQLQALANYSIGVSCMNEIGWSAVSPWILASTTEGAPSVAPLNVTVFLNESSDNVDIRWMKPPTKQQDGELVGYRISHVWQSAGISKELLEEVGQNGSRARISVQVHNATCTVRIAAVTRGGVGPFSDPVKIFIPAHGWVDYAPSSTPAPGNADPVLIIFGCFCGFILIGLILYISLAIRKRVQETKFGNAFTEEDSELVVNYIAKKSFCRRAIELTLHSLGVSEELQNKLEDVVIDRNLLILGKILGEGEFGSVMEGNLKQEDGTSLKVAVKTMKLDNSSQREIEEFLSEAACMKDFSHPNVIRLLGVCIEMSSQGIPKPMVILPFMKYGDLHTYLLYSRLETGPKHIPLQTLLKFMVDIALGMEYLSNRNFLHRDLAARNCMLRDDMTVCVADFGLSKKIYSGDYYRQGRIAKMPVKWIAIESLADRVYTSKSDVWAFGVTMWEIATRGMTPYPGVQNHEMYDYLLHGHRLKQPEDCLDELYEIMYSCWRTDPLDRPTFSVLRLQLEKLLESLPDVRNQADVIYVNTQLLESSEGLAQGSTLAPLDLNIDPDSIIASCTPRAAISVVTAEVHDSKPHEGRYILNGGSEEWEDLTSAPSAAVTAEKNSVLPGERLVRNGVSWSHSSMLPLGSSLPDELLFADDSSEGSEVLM

T2: human Sky forcedly expressed on HEK293F reporter cells (human, UniProt Q06418 41-890)
T2 sequence (looked up): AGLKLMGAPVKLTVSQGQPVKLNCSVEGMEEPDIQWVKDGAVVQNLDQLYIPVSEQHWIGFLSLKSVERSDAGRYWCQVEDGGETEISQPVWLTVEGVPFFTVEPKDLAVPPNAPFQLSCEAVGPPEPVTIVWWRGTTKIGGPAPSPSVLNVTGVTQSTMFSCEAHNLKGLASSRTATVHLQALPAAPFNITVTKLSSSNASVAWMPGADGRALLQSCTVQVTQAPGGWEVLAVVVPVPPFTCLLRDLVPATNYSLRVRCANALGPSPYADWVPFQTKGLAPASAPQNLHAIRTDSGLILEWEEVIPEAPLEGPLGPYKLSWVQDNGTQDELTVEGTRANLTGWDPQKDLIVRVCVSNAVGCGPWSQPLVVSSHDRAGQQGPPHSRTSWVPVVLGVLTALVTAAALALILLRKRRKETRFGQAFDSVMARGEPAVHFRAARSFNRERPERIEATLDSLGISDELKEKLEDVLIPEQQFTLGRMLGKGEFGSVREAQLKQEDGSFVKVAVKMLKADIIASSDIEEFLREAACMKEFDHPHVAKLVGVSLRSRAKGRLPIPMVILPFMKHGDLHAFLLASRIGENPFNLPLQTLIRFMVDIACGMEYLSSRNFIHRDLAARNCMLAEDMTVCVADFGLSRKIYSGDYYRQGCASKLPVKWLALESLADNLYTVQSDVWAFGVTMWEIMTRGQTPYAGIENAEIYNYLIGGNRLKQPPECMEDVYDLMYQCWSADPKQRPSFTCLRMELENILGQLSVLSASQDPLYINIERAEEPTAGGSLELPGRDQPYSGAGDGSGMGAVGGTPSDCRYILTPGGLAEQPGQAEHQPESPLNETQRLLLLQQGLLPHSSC

B1: C-terminally FLAG-tagged human Gas6 recombinant protein (hGas6-F) (ligand, not shown: small tags and cut ends)
chain: ALLPAREATQFLRPRQRRAFQVFEEAKQGHLERECVEELCSREEAREVFENDPETDYFYPRYLDCINKYGSPYTKNSGFATCVQNLPDQCTPNPCDRKGTQACQDLMGNFFCLCKAGWGGRLCDKDVNECSQENGGCLQICHNKPGSFHCSCHSGFELSSDGRTCQDIDECADSEACGEARCKNLPGSYSCLCDEGFAYSSQEKACRDVDECLQGRCEQVCVNSPGSYTCHCDGRGGLKLSQDMDTCEDILPCVPFSVAKSVKSLYLGRMFSGTPVIRLRFKRLQPTRLVAEFDFRTFDPEGILLFAGGHQDSTWIVLALRAGRLELQLRYNGVGRVTSSGPVINHGMWQTISVEELARNLVIKVNRDAVMKIAVAGDLFQPERGLYHLNLTVGGIPFHEKDLVQPINPRLDGCMRSWNWLNGEDTTIQETVKVNTRMQCFSVTERGSFYPGSGFAFYSLDYMRTPLDVGTESTWEVEVVAHIRPAADTGVLFALWAPDLRAVPLSVALVDYHSTKKLKKQLVVLAVEHTALALMEIKVCDGQEHVVTVSLRDGEATLEVDGTRGQSEVSAAQLQERLAVLERHLRSPVLTFAGGLPDVPVTSAPVTAFYRGCMTLEVNRRLLDLDEAAYKHSDITAHSCPPVEPAAA
modifications: gamma-carboxylated glutamic acid residues in the Gla domain (producer cells co-express rat VKOR and human GGCX); positions not given

Assays:
[1] = target: T1, human Mer forcedly expressed on HEK293F …; test: cell-based or functional assay
[2] = target: T2, human Sky forcedly expressed on HEK293F …; test: cell-based or functional assay
[3] = target: B1; test: SPR Biacore T100, captured antibody, Gas6 analyte, retest
Description: (§1) An anti-human IgG antibody was immobilized on a CM5 sensor chip (manufactured by GE Healthcare Japan Corp.) using Human Antibody Capture Kit (manufactured by GE Healthcare Japan Corp.) according to the attached manual. Each test antibody adjusted to 1 μg/mL was added for 10 seconds at a flow rate of 10 μL/min to flow cells. […] The measurement was performed by the […] method. The obtained sensorgram was analyzed using Bia Evaluation Software (manufactured by GE Healthcare Japan Corp.), and the kinetic constant of each antibody was calculated.
In this retest, unlike the test mentioned above, the number of antibodies to be measured and variations in the concentration of the analyte were decreased, and the assay was conducted for a short time (within several hours), instead of sufficiently leaving standing the analyte added to the vial. […] This minimizes the adsorption of the analyte to the vial and permits more accurate calculation of ka and KD values than that in the test mentioned above.

[4] = target: B1; test: SPR Biacore T100, captured antibody, Gas6 analyte, first test; reference line A-01 printed again at the head of the LV5 HV-series block (r24), same as r7
Description: as §1

[5] = target: B1; test: ELISA, hGas6-F captured by anti-FLAG, anti-human IgG-HRP
Description: First, 2 μg/mL anti-FLAG antibody [Monoclonal ANTI-FLAG M2 antibody produced in mouse (manufactured by Sigma-Aldrich Co. LLC) diluted with PBS (manufactured by Nacalai Tesque, Inc.)] was dispensed at 50 μL/well to a 96-well plate for ELISA (manufactured by Nalge Nunc International), and the plate was left standing overnight at 4° C. for adsorption. After removal of the immobilization solution, 1% BSA-PBS (manufactured by Nacalai Tesque, Inc.) was added thereto at 300 μL/well, and the plate was left standing at room temperature for 1 hour for blocking and washed five times with Tween 20-PBS (manufactured by Wako Pure Chemical Industries Ltd.).
In order to reduce the backgrounds of measurement values, the diluted secondary antibody solution was mixed with 50 μg/mL of an anti-DNP mouse IgG1 antibody and incubated at room temperature for 1 hour for use.

[6] = target: B1; test: SPR Biacore T100, captured antibody, Gas6 analyte, first test
[7] = target: B1; test: competitive ELISA, inhibition of hGas6-F binding to immobilised hAxl-hFc

luminescence intensity (Egr1-luciferase reporter, HEK293F forced to express human Mer) [1] [fold]	luminescence intensity (Egr1-luciferase reporter, HEK293F forced to express human Sky) [2] [fold]	Kd [3] [nM]	koff [3] [s⁻¹]	kon [3] [M⁻¹ s⁻¹]	kon [4] [M⁻¹ s⁻¹]	EC50 [5] [µg/mL]	Kd [6] [nM]	koff [6] [s⁻¹]	kon [6] [M⁻¹ s⁻¹]	IC50 [7] [µg/mL]	Binder
~3	~3	–	–	–	–	–	–	–	–	–	B1
–	–	0.73	0.000135	186000	> 83700	0.0113	< 1.87	0.000156	> 83700	0.0218	KM5320 chimeric antibody (antibody, V domains shown, also called KM5320 chimera; A-01) VH: QIQLVQSGPELKKPGETVKISCKASGYTFTNYGMNWVKQAPGKGLKWMGWINTETGEPTYSDDFKGRFAFSLETSATTAYLQINNLRNEDMATYFCAREDGYYGTLDYWGQGTSVTVSS VL: SIVMTQTPKFLLVSAGDRVTITCKASQSVSNDVAWYQQKPGQSPKVLIYYASNRYTGVPDRFTGSGYGTDFTFTISTVQAEDLAVYFCQQDYSSPWTFGGGTKLEIK
